Measurements from patent US20090215861A1.

Molecular target: CCR3 chemokine receptor (human) (UniProt P51677)
Test: cell-based or functional assay

Chain of UniProt P51677 (P51677 whole entry): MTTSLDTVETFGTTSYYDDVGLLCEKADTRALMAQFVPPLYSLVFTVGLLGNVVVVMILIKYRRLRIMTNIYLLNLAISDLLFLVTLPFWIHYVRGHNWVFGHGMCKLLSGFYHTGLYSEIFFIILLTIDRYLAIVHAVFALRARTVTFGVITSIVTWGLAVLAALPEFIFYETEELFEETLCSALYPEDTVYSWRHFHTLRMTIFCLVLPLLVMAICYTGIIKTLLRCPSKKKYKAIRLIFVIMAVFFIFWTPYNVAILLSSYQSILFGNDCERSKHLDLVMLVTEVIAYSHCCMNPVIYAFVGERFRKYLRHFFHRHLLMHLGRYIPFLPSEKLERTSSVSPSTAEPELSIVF

Substance: rhEotaxin (Biosource, cat# PMC1434) (from UniProt P51671 24-97) (ligand)
- chemotactic response of purified human eosinophils to eotaxin; decrease of migration after antisense oligonucleotides against CCR3: 55.6%
